Columns and labels:
Assay type in all cases: cell-based
RAJI cells = test: JNG assay, co-culture with RAJI cells
Procedure, shortened: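 Jurkat-NFAT-GFP (JNG) cells stably expressing SAR constructs via lentiviral transduction and puromycin/blasticidin selection were cocultured with target cells at E:T ~1:2 for ~4–18 h. NFAT-driven GFP was measured by FACS versus parental JNG cells; scores +/- to 5+ denote ~5–50% GFP-positive cells.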

Nalm6 cells = test: JNG assay, co-culture with Nalm6 cells; settings: for NFAT-GFP ASSAY: Nalm6: co-culture with Nalm6
Procedure, shortened: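 NFAT-driven GFP in stably SAR-transduced Jurkat cells after coculture (E:T ~1:2; ~4–18 h), measured by flow cytometry and expressed as % GFP+ cells over parental Jurkat-NFAT-GFP cells.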

RS;411 = test: JNG assay, co-culture with RS;411 cells; settings: for NFAT-GFP ASSAY: RS411: co-culture with RS411
Experimental: Cellular supernatant is collected and assayed for the induction of cytokines (e.g., IL2).
JNG (Jurkat cells expressing EGFP under an NFAT promoter) were infected with lentiviral vectors encoding different single chain and multi-chain SARs by spinfection in the presence of 8 µg/ml of Polybrene® (Sigma, Catalog no. H9268). The Jurkat-NFAT-GFP cells are engineered in such a way that the IL-2 promoter, which carries NFAT binding sites, is cloned upstream of the GFP gene. These cells have been used to study signaling via TCR and CAR. The different SARs were stably expressed in Jurkat NFAT-GFP cells by lentiviral mediated gene transfer, followed by selection with puromycin or blasticidin. No drug selection was used in case the construct lacked an antibiotic resistance gene. The SAR-expressing Jurkat-NFAT-GFP cells were cocultured with the target cells at E:T ratio of approximately 1:2 for approximately 4 hours to 18 hours. When the interaction between SIRs and their target antigen results in activation of the NFAT pathway, GFP expression is induced. […] GFP expression was monitored by FACS analysis. The Jurkat-NFAT-GFP (parental) cells were used as control. The structure of different constructs can be determined based on their names. […] The sequence of the other constructs in the table can be similarly determined from their names and by referring to the different Tables of this disclosure that provide the names and SEQ ID NO of the different modules. Alternatively, the composition and modular architecture of the different SAR constructs can be determined from their sequences by bioinformatics tools, including using nucleic acid and amino acids homology searches. A SAR is considered positive in the assay in case the SAR expressing Jurkat-NFAT-GFP cells show greater % GFP positive cells when cultured with the target cell line as compared to parental Jurkat-NFAT-GFP cells. […] In general, the number +/-, +, 2+, 3+, 4+, 5+ refer to approximately 5%, 10%, 20%, 30%, 40% and 50% GFP positive cells. The % of GFP induction in the above assay is dependent not only the relative strength of the SAR but also, among other factors, on the relative level of expression of the SAR in the JNG cells and the relative level of expression of the target antigen in the target cell line. To control for the difference in gene transduction efficiency of the different SAR constructs, the experiment was conducted with JNG cells transduced with SAR constructs co-expressing a drug resistance gene (e.g., puromycin or PAC) followed by drug selection to generate a stable population of SAR-expressing cells. It is to be noted that the drug resistance gene (e.g., PAC) in the SAR constructs is optional and in vivo studies were conducted with SAR constructs lacking the PAC gene.

B1: SEQ ID NO: 22162: bispecific SAR construct targeting CD19 and PD1 (protein)
chain: MALPVTALLLPLALLLHAARPDIQMTQSPSSLSASVGDRVTITCKASDHINNWLAWYQQKPGQAPKLLIYGATTLETGVPSRFSGSGSGTDYTLTISSLQPEDFATYYCQQSWNTPWTFGQGTKLEIKRLEDLKNVFPPEVAVFEPSEAEISHTQKATLVCLATGFYPDHVELSWWVNGKEVHSGVCTDPQPLKEQPALNDSRYCLSSRLRVSATFWQNPRNHFRCQVQFYGLSENDEWTQDRAKPVTQIVSAEAWGRADCGFTSESYQQGVLSATILYEILLGKATLYAVLVSALVLMAMVKRKDSRGRAKRSGSGATNFSLLKQAGDVEENPGPTSATMDWIWRILFLVGAATGAHSGPEVQLLESGGGLVQPGGSLRLSCAASGSIASIHAMGWFRQAPGKEREFVAVITWSGGITYYADSVKGRFTISRDNSKNTVYLQMNSLRPEDTALYYCAGDKHQSSWYDYWGQGTLVTVSSGSGGGGSGGGGSGGGGSFEQVQLQQPGAELVKPGASVKMSCKASGYAFSSYWINWMKQKPGQGLEWIGQIYPGDGDTNYNGKFKGRATLTADTSSSTAYMQLSSLTSEDSAVYFCARSITTVVGCAMDYWGQGTSVTVSSTRIQNPDPAVYQLRDSKSSDKSVCLFTDFDSQTNVSQSKDSDVYITDKCVLDMRSMDFKSNSAVAWSNKSDFACANAFNNSIIPEDTFFPSPESSCDVKLVEKSFETDTNLNFQNLSVIGFRILLLKVAGFNLLMTLRLWSSRAKRSGSGVKQTLNFDLLKLAGDVESNPGPSRGHMTEYKPTVRLATRDDVPRAVRTLAAAFADYPATRHTVDPDRHIERVTELQELFLTRVGLDIGKVWVADDGAAVAVWTTPESVEAGAVFAEIGPRMAELSGSRLAAQQQMEGLLAPHRPKEPAWFLATVGVSPDHQGKGLGSAVVLPGVEAAERAGVPAFLETSAPRNLPFYERLGFTVTADVEVPEGPRTWCMTRKPGA
GFP induction / activity (RAJI cells; co-culture with RAJI cells): robust activity
GFP induction / activity (Nalm6 cells; co-culture with Nalm6 cells): robust activity
GFP induction / activity (RS;411; co-culture with RS;411 cells): robust activity

B2: 22124 (protein)
chain: MALPVTALLLPLALLLHAARPEVQLVESGGGLVQAGGSLRLSCAASGRTFSMGWFRQAPGKEREFVAAITYSGGSPYYADSVKGRFTISRDNAKNTVYLQMNSLKPEDTAVYYCAANPTYGSDWNAENWGQGTQVTVSSGGGGSGGGGSQLQLQESGPGLVKPSETLSLTCTVSGGSISSGDYYWGWIRQPPGKGLEWIGSISYSGSTYYNPSLKSRVTISVDTSRNQFSLKLSSVTAADTAVYYCTREDSSNWRSRGQGTLVTVSSGTGGGGSGGGGSGGGGSEFDIQMTQSPSSLSASVGDRVTITCKASDHINNWLAWYQQKPGQAPKLLIYGATTLETGVPSRFSGSGSGTDYTLTISSLQPEDFATYYCQQSWNTPWTFGQGTKLEIKRLEIQNPDPAVYQLRDSKSSDKSVCLFTDFDSQTNVSQSKDSDVYITDKCVLDMRSMDFKSNSAVAWSNKSDFACANAFNNSIIPEDTFFPSSDVPCDVKLVEKSFETDTNLNFQNLSVIGFRILLLKVAGFNLLMTLRLWSSRAKRSGSGVKQTLNFDLLKLAGDVESNPGPTSATMDWIWRILFLVGAATGAHSGPQVQLQESGGGLAQAGGSLRLSCAASGRTFSMGWFRQAPGKEREFVAAITYSGGSPYYASSVRGRFTISRDNAKNTVYLQMNSLKPEDTAVYYCAANPTYGSDWNAENWGQGTQVTVSSGSGGGGSGGGGSGGGGSFEQVQLQQPGAELVKPGASVKMSCKASGYAFSSYWINWMKQKPGQGLEWIGQIYPGDGDTNYNGKFKGRATLTADTSSSTAYMQLSSLTSEDSAVYFCARSITTVVGCAMDYWGQGTSVTVSSTREDLKNVFPPEVAVFEPSKAEIAHTQKATLVCLATGFYPDHVELSWWVNGKEVHSGVCTDPQPLKEQPALNDSRYCLSSRLRVSATFWQNPRNHFRCQVQFYGLSENDEWTQDRAKPVTQIVSAEAWGRADCGITSASYHQGVLSATILYEILLGKATLYAVLVSALVLMAMVKRKDSRGRAKRSGSGATNFSLLKQAGDVEENPGPSRGHMTEYKPTVRLATRDDVPRAVRTLAAAFADYPATRHTVDPDRHIERVTELQELFLTRVGLDIGKVWVADDGAAVAVWTTPESVEAGAVFAEIGPRMAELSGSRLAAQQQMEGLLAPHRPKEPAWFLATVGVSPDHQGKGLGSAVVLPGVEAAERAGVPAFLETSAPRNLPFYERLGFTVTADVEVPEGPRTWCMTRKPGA
NFAT-GFP ASSAY: Nalm6 (Nalm6 cells): 2+ (refer to approximately 5%, 10%, 20%, 30%, 40% and 50% GFP positive cells)
NFAT-GFP ASSAY: RS411 (RS;411): 2+ (refer to approximately 5%, 10%, 20%, 30%, 40% and 50% GFP positive cells)

B3: 22126 (protein)
chain: MALPVTALLLPLALLLHAARPEVQLVESGGGLVQPGGSLRLSCAASGFSFSDFWMSWVRQAPGKGLEWVATISQAGSEKDYVDSVKGRFTISRDNAKKSLYLQMNSLRAEDTAVYYCASGVYSFDYRGQGTLVTVSSGTGGGGSGGGGSGGGGSEFDIQMTQSPSSLSASVGDRVTITCKASDHINNWLAWYQQKPGQAPKLLIYGATTLETGVPSRFSGSGSGTDYTLTISSLQPEDFATYYCQQSWNTPWTFGQGTKLEIKRLEDLKNVFPPEVAVFEPSKAEIAHTQKATLVCLATGFYPDHVELSWWVNGKEVHSGVCTDPQPLKEQPALNDSRYCLSSRLRVSATFWQNPRNHFRCQVQFYGLSENDEWTQDRAKPVTQIVSAEAWGRADCGITSASYHQGVLSATILYEILLGKATLYAVLVSALVLMAMVKRKDSRGRAKRSGSGATNFSLLKQAGDVEENPGPTSATMDWIWRILFLVGAATGAHSGPQVQLQESGGGLAQAGGSLRLSCAASGRTFSMGWFRQAPGKEREFVAAITYSGGSPYYASSVRGRFTISRDNAKNTVYLQMNSLKPEDTAVYYCAANPTYGSDWNAENWGQGTQVTVSSGSGGGGSGGGGSGGGGSFEQVQLQQPGAELVKPGASVKMSCKASGYAFSSYWINWMKQKPGQGLEWIGQIYPGDGDTNYNGKFKGRATLTADTSSSTAYMQLSSLTSEDSAVYFCARSITTVVGCAMDYWGQGTSVTVSSTRIQNPDPAVYQLRDSKSSDKSVCLFTDFDSQTNVSQSKDSDVYITDKCVLDMRSMDFKSNSAVAWSNKSDFACANAFNNSIIPEDTFFPSSDVPCDVKLVEKSFETDTNLNFQNLSVIGFRILLLKVAGFNLLMTLRLWSSRAKRSGSGVKQTLNFDLLKLAGDVESNPGPSRGHMTEYKPTVRLATRDDVPRAVRTLAAAFADYPATRHTVDPDRHIERVTELQELFLTRVGLDIGKVWVADDGAAVAVWTTPESVEAGAVFAEIGPRMAELSGSRLAAQQQMEGLLAPHRPKEPAWFLATVGVSPDHQGKGLGSAVVLPGVEAAERAGVPAFLETSAPRNLPFYERLGFTVTADVEVPEGPRTWCMTRKPGA
NFAT-GFP ASSAY: Raji (RAJI cells; JNG cells expressing construct, co-culture with Raji): 5+ (refer to approximately 5%, 10%, 20%, 30%, 40% and 50% GFP positive cells)
NFAT-GFP ASSAY: Nalm6 (Nalm6 cells): 5+ (refer to approximately 5%, 10%, 20%, 30%, 40% and 50% GFP positive cells)
NFAT-GFP ASSAY: RS411 (RS;411): +/- (refer to approximately 5%, 10%, 20%, 30%, 40% and 50% GFP positive cells)

— patent US20230212319A1, “NOVEL ANTIGEN BINDING DOMAINS AND SYNTHETIC ANTIGEN RECEPTORS INCORPORATING THE SAME” (University of Southern California, priority 2020, published 2023)
